Results as given in publication PMC6713926, “Structural Basis for Properdin Oligomerization and Convertase Stimulation in the Human Complement System” (Frontiers in Immunology, 2019).

B1: hFPNb1, FP specific non-inhibitory nanobody (VHH)
VHH: QVQLVESGGGLVQAGGSLRLSCAASERTFTIYAMGWFRQAPGKEREFVAAISRSGENTDYADSVKGRFTISRDNNKNTISLQMNSLKPEDTAVYYCAAGRAILVHTTKKEYDHWGQGTQVTVSS
notes: llama nanobody selected by phage display against FPc
B2: Recombinant FB D279G, S699A, K348A, L349A, K350A (enzyme, human, UniProt P00751 26-764, looked up)
chain: TPWSLARPQGSCSLEGVEIKGGSFRLLQEGQALEYVCPSGFYPYPVQTRTCRSTGSWSTLKTQDQKTVRKAECRAIHCPRPHDFENGEYWPRSPYYNVSDEISFHCYDGYTLRGSANRTCQVNGRWSGQTAICDNGAGYCSNPGIPIGTRKVGSQYRLEDSVTYHCSRGLTLRGSQRRTCQEGGSWSGTEPSCQDSFMYDTPQEVAEAFLSSLTETIEGVDAEDGHGPGEQQKRKIVLDPSGSMNIYLVLDGSGSIGASNFTGAKKCLVNLIEKVASYGVKPRYGLVTYATYPKIWVKVSEADSSNADWVTKQLNEINYEDHAAASGTNTKKALQAVYSMMSWPDDVPPEGWNRTRHVIILMTDGLHNMGGDPITVIDEIRDLLYIGKDRKNPREDYLDVYVFGVGPLVNQVNINALASKKDNEQHVFKVKDMENLEDVFYQMIDESQSLSLCGMVWEHRKGTDYHKQPWQAKISVIRPSKGHESCMGAVVSEYFVLTAAHCFTVDDKEHSIKVSVGGEKRDLEIEVVLFHPNYNINGKKEAGIPEFYDYDVALIKLKNKLKYGQTIRPICLPCTEGTTRALRLPPTTTCQQQKEELLPAQDIKALFVSEEEKKLTRKEVYIKNGDKKGSCERDAQYAPGYDKVKDISEVVTPRFLCTGGVSPYADPNTCRGDAGGPLIVHKRSRFIQVGVISWGVVDVCKNQKRQKQVPAHARDFHINLFQVLPWLKEKLQDEDLGFL
notes: complement factor B (FB), human; also called FB AAA; 348-AAA-350

Key:
[1] = biological target: T1, FPhtΔ3, FP head-tail monomer without TSR3 (Homo sapiens, UniProt P27918); assay: crystal structure; C3bBbSCIN-FPhtΔ3-hFPNb1 complex, 6.2 Å; 100 mM NaCl, 5% PEG4000, 10 mM MgCl2, 100 mM sodium cacodylate pH 5.8; conditions: both partners purified
T1 construct: properdin (FP), human, TB-TSR2 (FPhΔ3), made from FPh by a stop codon between TSR2 and TSR3; properdin (FP), human, TSR4-6 tail fragment (FPt); The methods name FPhtΔ3 for the crystals with C3bBbSCIN and hFPNb1, the results FPcΔ3; also called FPcΔ3 (so called in the results for the nanobody complex); FPΔ3

[2] = biological target: T2, WT FP, recombinant oligomeric properdin (human, UniProt P27918); assay: pull-down; 50 μg hFPNb1 added to HEK293F supernatants of WT FP or E244 mutants, captured on Ni-NTA beads, washed with 500 mM NaCl, eluted with 400 mM imidazole; conditions: one partner purified
T2 construct: properdin (FP), human, wild type; Secreted oligomers; preparations of ~50% dimer and 50% trimer, and of ~90% dimer and 10% trimer, were used; also called oligomeric FP; dimeric FP; source: also in cell supernatant

Biotinylated C3b = biological target: T3, Biotinylated C3b (human, UniProt P01024 23-667; P01024 749-1663, biotin (Maleimide-PEG2-Biotin)); assay: BLI; biotinylated C3b on streptavidin sensors; FB variants at 40 μg/mL; 20 mM MES pH 6.0, 100 mM NaCl, 0.05% Tween, 1 mg/mL BSA, 5 mM MgCl2; conditions: both partners purified
T3 construct: complement C3, human, beta chain; complement C3, human, alpha' chain of C3b; also called biotin-C3b; immobilized C3b; source: made from plasma C3 by trypsin cleavage in the presence of Maleimide-PEG2-Biotin, purified by cation exchange
T3 sequence (P01024 23-667, chain 1 of 2): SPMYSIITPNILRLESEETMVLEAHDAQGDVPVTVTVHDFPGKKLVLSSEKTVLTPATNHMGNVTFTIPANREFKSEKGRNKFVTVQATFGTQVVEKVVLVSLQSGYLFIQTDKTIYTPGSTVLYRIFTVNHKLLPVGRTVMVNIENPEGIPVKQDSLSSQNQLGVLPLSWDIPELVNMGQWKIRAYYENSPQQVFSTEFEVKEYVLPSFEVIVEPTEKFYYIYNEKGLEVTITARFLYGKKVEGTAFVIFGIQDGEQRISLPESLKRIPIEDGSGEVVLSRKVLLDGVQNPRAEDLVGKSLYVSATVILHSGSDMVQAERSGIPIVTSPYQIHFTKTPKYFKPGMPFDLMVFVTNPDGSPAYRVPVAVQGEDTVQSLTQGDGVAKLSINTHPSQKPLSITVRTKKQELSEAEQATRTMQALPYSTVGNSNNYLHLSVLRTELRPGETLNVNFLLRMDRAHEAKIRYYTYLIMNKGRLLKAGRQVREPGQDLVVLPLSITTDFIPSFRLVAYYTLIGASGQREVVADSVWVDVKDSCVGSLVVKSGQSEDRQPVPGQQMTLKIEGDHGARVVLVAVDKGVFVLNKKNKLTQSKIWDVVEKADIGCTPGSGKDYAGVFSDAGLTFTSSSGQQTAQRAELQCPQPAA
T3 sequence (P01024 749-1663, chain 2 of 2): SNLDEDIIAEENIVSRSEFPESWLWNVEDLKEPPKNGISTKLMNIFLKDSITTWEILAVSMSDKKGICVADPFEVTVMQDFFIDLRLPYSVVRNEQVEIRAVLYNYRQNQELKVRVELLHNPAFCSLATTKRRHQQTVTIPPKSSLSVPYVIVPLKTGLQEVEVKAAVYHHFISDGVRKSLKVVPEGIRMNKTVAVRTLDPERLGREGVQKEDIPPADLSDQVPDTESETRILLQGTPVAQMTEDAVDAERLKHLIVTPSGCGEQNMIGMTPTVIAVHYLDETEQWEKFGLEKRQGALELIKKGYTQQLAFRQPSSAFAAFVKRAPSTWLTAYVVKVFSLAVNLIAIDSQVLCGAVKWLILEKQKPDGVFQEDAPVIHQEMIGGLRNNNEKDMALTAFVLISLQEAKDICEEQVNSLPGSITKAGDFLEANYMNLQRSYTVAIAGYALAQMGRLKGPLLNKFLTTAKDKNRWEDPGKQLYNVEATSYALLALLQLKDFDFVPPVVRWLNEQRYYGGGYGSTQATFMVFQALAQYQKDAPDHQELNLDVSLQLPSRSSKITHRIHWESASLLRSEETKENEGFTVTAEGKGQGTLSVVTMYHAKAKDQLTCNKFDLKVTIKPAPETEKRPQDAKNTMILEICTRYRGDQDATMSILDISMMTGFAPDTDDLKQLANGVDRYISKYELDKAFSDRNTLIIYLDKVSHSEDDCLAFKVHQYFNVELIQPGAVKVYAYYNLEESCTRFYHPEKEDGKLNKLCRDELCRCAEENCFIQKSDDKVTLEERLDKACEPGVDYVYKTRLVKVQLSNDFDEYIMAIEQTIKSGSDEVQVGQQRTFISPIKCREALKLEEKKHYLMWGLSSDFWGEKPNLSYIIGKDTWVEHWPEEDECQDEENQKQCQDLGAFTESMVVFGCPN

T2 sequence (P27918 28-469): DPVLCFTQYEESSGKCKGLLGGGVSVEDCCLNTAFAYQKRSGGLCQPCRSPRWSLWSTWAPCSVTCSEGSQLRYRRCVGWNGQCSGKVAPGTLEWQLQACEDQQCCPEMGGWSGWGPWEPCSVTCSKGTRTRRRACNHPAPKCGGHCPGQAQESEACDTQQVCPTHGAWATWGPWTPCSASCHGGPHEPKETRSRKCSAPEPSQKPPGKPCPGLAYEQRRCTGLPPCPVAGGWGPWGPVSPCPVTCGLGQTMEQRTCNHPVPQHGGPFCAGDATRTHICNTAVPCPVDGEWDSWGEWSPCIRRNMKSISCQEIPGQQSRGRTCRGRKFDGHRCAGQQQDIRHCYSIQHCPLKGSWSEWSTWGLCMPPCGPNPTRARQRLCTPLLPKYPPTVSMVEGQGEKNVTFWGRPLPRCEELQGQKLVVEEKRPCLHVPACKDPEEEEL
T1 sequence (P27918 whole entry, looked up, stated change not applied, the tested form may be a part): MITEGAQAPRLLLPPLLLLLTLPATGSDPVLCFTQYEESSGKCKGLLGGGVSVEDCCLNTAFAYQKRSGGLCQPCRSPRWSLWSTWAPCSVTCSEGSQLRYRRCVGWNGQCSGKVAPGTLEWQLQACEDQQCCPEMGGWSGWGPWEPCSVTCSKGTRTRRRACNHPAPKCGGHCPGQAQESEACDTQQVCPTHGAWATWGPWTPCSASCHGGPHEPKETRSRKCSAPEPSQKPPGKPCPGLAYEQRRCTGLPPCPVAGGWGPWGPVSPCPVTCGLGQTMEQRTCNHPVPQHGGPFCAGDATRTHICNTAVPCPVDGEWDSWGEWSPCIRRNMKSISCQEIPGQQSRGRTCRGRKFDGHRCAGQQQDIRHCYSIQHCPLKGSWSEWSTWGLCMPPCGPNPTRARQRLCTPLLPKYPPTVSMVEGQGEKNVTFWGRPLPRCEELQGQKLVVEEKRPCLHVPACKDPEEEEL

Binder | binding result [1] | binding result [2] | binding result (Biotinylated C3b)
B1 | binds | binds | –
B2 | – | – | binds
